Test results reported in publication PMC10406935.

Assays:
[1] = target: MslH (lasso peptide epimerase), N-terminally His6-tagged, wild type (Streptomyces griseorubiginosus); experiment: crystal structure; MslH:apo, His6-MslH 5 mg/ml, sitting-drop vapor diffusion, 20 °C; space group I422, one monomer in the asymmetric unit; 2.30 Å
[2] = target: MslH (lasso peptide epimerase), N-terminally His6-tagged, wild type (Streptomyces griseorubiginosus); experiment: crystal structure; co-crystallisation: purified His6-MslA analogue-MslB1 complex mixed with His6-MslH (5 mg/ml) at 1.2:1 mole ratio 16 h before the precipitant; sitting drops, 20 °C; one monomer in the asymmetric unit
[3] = target: MslH (lasso peptide epimerase), N-terminally His6-tagged, wild type (Streptomyces griseorubiginosus); experiment: SEC; gel-filtration of purified recombinant His6-MslH; apparent molecular weight against the 49.4 kDa calculated for the monomer

Measured: stoichiometry N

MslH (lasso peptide epimerase), N-terminally His6-tagged, wild type (enzyme)
8: all assays above
